Earlier results as cited in patent US9914774B2, “Notch pathway inhibition” (Genentech, Inc., priority 2014, dated 2018).
Where two headings read alike, the source gives them in different places.

B1: 52M51: anti-Notch1 antibody 52M51, described in U.S. Pat. No. 8,435,513 (antibody, chains of the INN, looked up, V domains shown)
VH: QVQLVQSGAEVKKPGASVKISCKVSGYTLRGYWIEWVRQAPGKGLEWIGQILPGTGRTNYNEKFKGRVTMTADTSTDTAYMELSSLRSEDTAVYYCARFDGNYGYYAMDYWGQGTTVTVSS
VL: QAVVTQEPSLTVSPGGTVTLTCRSSTGAVTTSNYANWFQQKPGQAPRTLIGGTNNRAPGVPARFSGSLLGGKAALTLSGAQPEDEAEYYCALWYSNHWVFGGGTKLTVL

Tests used:
[1] = Phase 1a, patients with solid tumors
[2] = first-in-human phase I, advanced solid tumors

Row | Molecule | patients experienced diarrhea [1] [%] | patients experiencing grade 3 or higher diarrhea [1] [%] | patients experienced diarrhea [2] [%]
1 | 59R5: anti-Notch antibody 59R5, described in U.S. Pat. No. 7,919,092 | 58 | 14 | –
2 | B1 | – | – | 64
